pKd: −log10 of the molar value. Where only a bound is given, the exact number is not on record here.

For experiment [1], the target named is SARS-CoV-2 Spike on HIV-based pseudotyped virus (Spike plasmid BEI NR52310) (SARS-CoV-2) (UniProt P0DTC2). As to the kind of experiment: cell-based or functional assay.
For a further experiment, the target named is mouse FcγRI (mouse) (UniProt P26151).
The target of experiment [2] is mouse FcRn (mouse) (UniProt Q61559).
For experiment [3] the target is unchanged. The experiment can be described thus: pH 5.6.

Chain of mouse FcγRI (mouse) (P26151 25-297 limits assumed): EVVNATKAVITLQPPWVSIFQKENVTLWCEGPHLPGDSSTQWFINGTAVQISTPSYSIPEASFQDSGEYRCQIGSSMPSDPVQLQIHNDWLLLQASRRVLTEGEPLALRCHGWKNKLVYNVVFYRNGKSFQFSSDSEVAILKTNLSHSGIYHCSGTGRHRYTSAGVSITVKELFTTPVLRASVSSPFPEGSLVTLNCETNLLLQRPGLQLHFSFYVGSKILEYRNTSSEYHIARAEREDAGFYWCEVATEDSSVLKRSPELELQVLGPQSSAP
Chain of mouse FcRn (mouse) (Q61559 22-297 limits assumed, form in doubt, chain 1 of 2): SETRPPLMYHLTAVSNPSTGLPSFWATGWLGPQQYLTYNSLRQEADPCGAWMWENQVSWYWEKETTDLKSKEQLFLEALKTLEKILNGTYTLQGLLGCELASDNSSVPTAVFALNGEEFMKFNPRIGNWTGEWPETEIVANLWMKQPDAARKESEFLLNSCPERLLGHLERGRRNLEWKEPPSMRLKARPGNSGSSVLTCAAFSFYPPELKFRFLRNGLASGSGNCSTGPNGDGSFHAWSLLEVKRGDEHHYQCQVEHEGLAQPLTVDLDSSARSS
Chain of mouse FcRn (mouse) (chain, as listed by the source limits assumed, form in doubt, chain 2 of 2): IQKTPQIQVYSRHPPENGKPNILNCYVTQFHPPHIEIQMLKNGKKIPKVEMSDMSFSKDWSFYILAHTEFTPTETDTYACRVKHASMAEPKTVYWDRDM

In experiment [1], “REGN10933 (recombinant mAb, reference IgG) (antibody)” showed an IC50 (PsV neutralization) of 0.0044 µg/mL.
The same measure, in the same setting: next, “REGN10987 (recombinant mAb, reference IgG) (antibody)”: 0.03 µg/mL.
As to “mouse surrogate Multabody (HD37, mouse IgG2a Fc, mouse apoferritin), WT Fc”, in the experiment with mouse FcγRI (mouse), the negative logarithm of the Kd (pKd) is more than 12.00, the koff was less than 1e-07 s⁻¹ and the kon is 939000 M⁻¹ s⁻¹. The substance further came in with a kon with mouse FcRn (mouse) [2] of 682000 M⁻¹ s⁻¹. Also, in the experiment with mouse FcRn (mouse) [3], the negative-log Kd (pKd) is more than 12.00 and the koff was less than 1e-07 s⁻¹.
On to mouse surrogate Multabody with LALAP Fc, for which the kon with mouse FcRn (mouse) [2] amounted to 2.4e+06 M⁻¹ s⁻¹. Also, in the experiment with mouse FcRn (mouse) [3], the pKd was more than 12.00 and the koff was less than 1e-07 s⁻¹.

In general, pKd refers to −log10 of the Kd, conventionally taken in molar units. A low value points to a large Kd. For orientation: koff means a measure of how fast the partners let go of each other. Low readings indicate a long-lived complex, high ones a short-lived complex. Broadly, the kon is the second-order rate constant of association. High values mean fast association, low ones slow association.
